Measurements: publication PMC1876262

Molecular target: Bovine brain tubulin (bovine) (UniProt Q6B856)
Sequence of UniProt Q6B856 (Q6B856 whole entry, looked up): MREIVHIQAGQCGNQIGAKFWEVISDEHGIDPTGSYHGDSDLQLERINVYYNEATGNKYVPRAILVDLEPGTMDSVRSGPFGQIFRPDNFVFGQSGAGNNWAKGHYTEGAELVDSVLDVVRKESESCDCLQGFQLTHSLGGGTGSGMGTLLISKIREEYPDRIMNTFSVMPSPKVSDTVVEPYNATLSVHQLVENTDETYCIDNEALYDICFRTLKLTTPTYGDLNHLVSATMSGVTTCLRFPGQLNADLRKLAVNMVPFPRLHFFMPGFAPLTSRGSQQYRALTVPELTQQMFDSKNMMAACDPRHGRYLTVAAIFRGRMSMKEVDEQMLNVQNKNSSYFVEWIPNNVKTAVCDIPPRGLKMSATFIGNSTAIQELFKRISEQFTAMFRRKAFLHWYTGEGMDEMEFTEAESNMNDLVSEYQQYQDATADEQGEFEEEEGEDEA

B1: wt human αB crystallin (natural protein)
chain: MDIAIHHPWIRRPFFPFHSPSRLFDQFFGEHLLESDLFPTSTSLSPFYLRPPSFLRAPSWFDTGLSEMRLEKDRFSVNLDVKHFSPEELKVKVLGDVIEVHGKHEERQDEHGFISREFHRKYRIPADVDPLTITSSLSSDGVLTVNGPRKQVSGPERTIPITREEKPAVTAAPKK
B1 was tested, and the decrease of thermal aggregation of tubulin: OD340 at 52°C for 60 min (Figure 4) was 65%.
